The target in one test is T1, rIL-16 (Mus musculus, UniProt O54824).
T1 construct: polyhistidine fusion protein containing the 119 C-terminal residues encoded by the previously reported murine cDNA; polyhistidine (cleaved yes); made in house; host or cells: Escherichia coli strain HMS 174, vector pET16b
T1 sequence (O54824 1204-1322): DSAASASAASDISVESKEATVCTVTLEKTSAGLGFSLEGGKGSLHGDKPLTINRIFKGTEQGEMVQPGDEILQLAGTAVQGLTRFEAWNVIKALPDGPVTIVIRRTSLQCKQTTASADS
Briefly: IL-2R (CD25) induction on rIL-16-stimulated murine splenocytes, flow cytometry. Conditions: for % IL-2R+ CELLS: IL-16 + peptide, concentration not given (10^-6 M or 10^-7 M). The format is cell-based. As to the method:
Induction of IL-2R (CD25) on rIL-16-stimulated murine splenocytes was detected by staining with FITC-conjugated anti-mouse IL-2R Ab (PharMingen). Cells were fixed with 10% formalin and stored at 4° C. in the dark before analysis with a Becton Dickinson FACScan 440 flow cytometer. The % IL-2R^+ cells was determined by subtracting the % isotype control positive from the total % positive events.
Peptides A (SEQ ID NO:15) and C (SEQ ID NO:19) were inhibitory at 10^−7 M, but not 10^−6 M. The negative control peptide D (SEQ ID NO:20) (10^−6 M) had no effect on rIL-16-stimulated IL-2R expression.
Murine splenocytes were incubated in control buffer, rIL-16 alone, or rIL-16 plus the indicated peptide. IL-2R expression was determined by flow cytometry using FITC-conjugated anti-IL-2R antibody. The % IL-2R^+ was determined by subtracting the FITC-conjugated isotype control antibody binding from the FITC-conjugated anti-IL-2R antibody binding. Isotype control antibody binding ranged from 1% to 4%.

For the next test, the target named is T2, murine rIL-16 (Mus musculus, UniProt O54824).
T2 construct: polyhistidine fusion protein containing the 119 C-terminal residues encoded by the previously reported murine cDNA; polyhistidine (cleaved yes); made in house; host or cells: Escherichia coli strain HMS 174, vector pET16b
T2 sequence (O54824 1204-1322): T1 sequence (O54824 1204-1322)
As to the kind of experiment: murine rIL-16-stimulated murine splenocyte migration, modified Boyden chamber. The format is cell-based. Conditions: rIL-16 10^-9 M; for inhibition of rIL-16-induced splenocyte migration: peptide 10^-6 M; for IL-16-inhibitory activity (block of murine rIL-16-stimulated murine splenocyte migration): peptide concentration not given. As to the method:
Cell migration was assessed using a modified Boyden chamber. […] Cell migration is expressed as the mean % control migration.
Results from multiple experiments were analyzed using Student's t test for paired variables, and Tukey's test for multiple variables. A P value<0.05 was considered significant.
Peptide B (aa 341-352) includes the sequence WQCLLS (residues 344-349, SEQ ID NO:4) which is 100% conserved in all the species examined. Peptide A (aa 327-338) and peptide C (aa 351-362) correspond to the N-terminal and C-terminal flanks of peptide B, respectively. A random scrambled 12-residue peptide (LSKQKMVSREGT) designated peptide D (SEQ ID NO:20) was used a negative control for nonspecific effects of peptide administration on splenocyte motility. Criteria for the design of peptide D included overall hydrophilicity, neutral charge and no cysteine residues (to prevent possible dimer formation).
Murine spleens were harvested from healthy 8-week male BALB/c mice (Jackson Laboratory). Splenocytes were isolated by grinding spleens between fiysted slides in M199 culture medium (M. A. Bioproducts), supplemented with 0.4% bovine serum albumin, 22 mM HEPES buffer, 100 with U/ml of penicillin, 100 μg/ml streptomycin (M199-HPS). Cells were washed and erytbrocytes were lysed in Gey's solution. Splenocytes were washed twice in M199, and resuspended to a final concentration of 2×10^6 cells/ml in RPMI1640 medium (BioWhittaker) supplemented with 10% FBS, 100 U/ml of penicillin and 100 μg/ml of streptomycin. By flow cytometry, 25% of the isolated splenocytes within the lymphocyte-cloud were CD4^+.
Recombinant murine IL-16 was produced in Escherichia coli (strain HMS 174; Novagen) as a polyhistidine fusion protein containing the 119 C-terminal residues encoded by the previously reported murine cDNA (Keane et al., (1998) J. Immunol. 160: 5945-5954), using the bacterial expression vector pET16b (Novagen). The recombinant product corresponds to the secreted form of natural murine IL-16 following cleavage by caspase-3 (Zhang et al. (1998) J. Biol. Chem. 273:1144-1149). The rIL-16 was purified by metal chelation chromatography, and the polyhistidine tag was cleaved with factor Xa (New England Biolabs).

In test [1] the target is T3, rIL-16 / GST-murine D3D4 fusion protein (Mus musculus, UniProt O54824).
T3 construct: murine IL-16 cDNA construct in pET-16b expressing the C-terminal 119 amino acids of IL-16; polyhistidine (pET-16b vector); made in house; host or cells: IL-16: coupled in vitro transcription-translation (TNT T7, Promega); GST-D3D4: E. coli, vector pGEX-5X.1
T3 sequence (O54824 1205-1322 limits assumed): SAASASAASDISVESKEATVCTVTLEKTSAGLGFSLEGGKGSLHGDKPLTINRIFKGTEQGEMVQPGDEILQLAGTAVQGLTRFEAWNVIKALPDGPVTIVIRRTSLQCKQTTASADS
As to the kind of experiment: in vitro binding of 35S-labeled murine rIL-16 to GST-murine D3D4 fusion protein. The conditions noted are these: each peptide 10^-5 M, 10 ug/ml. The method, then:
Complexes were isolated by centrifugation, then bound rIL-16 was released by boiling in SDS-PAGE buffer, resolved by SDS-PAGE, and detected by autoradiography. Specificity of the interaction between rIL-16 and D3D4 was assessed by competition with an excess of unlabeled rIL-16. ^35S-labeled rIL-16 incubated with GST (lane 1); ^35S-labeled rIL-16 incubated with GST-D3D4 (lane 2); ^35S-labeled rIL-16 plus excess unlabelled rIL-16 incubated with GST-D3D4 (lane 3); ^35S-labeled rIL-16 plus10 ug/ml peptide A (lane 4); ^35S-labeled rIL-16 plus 10 ug/ml peptide B (lane 5); ^35S-labeled rIL-16 plus 10 ug/ml peptide C (lane 6); ); ^35S-labeled rIL-16 plus 10 ug/ml peptide A and peptide B (lane 7). The arrow indicates the position of IL-16 on the gel. The identity of this band was re-confirmed by immunoblotting with anti-IL-16 antibody.
Radiolabeled murine IL-16 was prepared by in vitro translation and transcription (TNT T7, Promega) of a murine IL-16 cDNA construct in pET-16b expressing the C-terminal 119 amino acids of IL-16. Each coupled transcription-translation reaction was conducted in medium supplemented with [^35S]methionine according to the manufacturer's instructions.
A glutathione-S-transferase (GST)-murine D3D4 fusion protein was produced by subcloning the murine D3D4 domain cDNA sequences encoding the CD4 protein open reading frame from Phe^182 to Phe^372 into pGEX-5X.1 (Pharmacia). The GST-D3D4 fusion protein was purified according to the Pharmacia GST-fusion protein purification protocol using glutathione-conjugated Sepharose 4B beads in the presence of 2 mM dTT. […]
To investigate IL-16 interaction with the D3D4 of CD4, the GST-D3D4 fusion protein, or GST alone, was bound to the glutathione-conjugated Sepharose 4B beads. […] The GST-D3D4 or GST proteins were released from the beads by boiling in SDS gel loading buffer, and the supernatant was analyzed by 12% SDS-polyacrylamide gel electrophoresis (SDS-PAGE). The presence of ^35S-labeled mrIL16 was detected by autoradiography of the dried gel. […]

A further test has as its system anti-CD4 antibody (OKT4). As to the kind of experiment: OKT4-induced migration of T-cells. The format is cell-based. The conditions noted are these: OKT4 1 μg/ml, co-incubation.
Another test concerns the target T4, IL-16 (Mus musculus, UniProt O54824).
T4 construct: polyhistidine fusion protein containing the 119 C-terminal residues encoded by the previously reported murine cDNA; polyhistidine (cleaved yes); made in house
T4 sequence (O54824 1204-1322): T1 sequence (O54824 1204-1322)
As to the kind of experiment: IL-16-induced migration of human T-cells. The format is cell-based. Conditions: co-incubation of IL-16 and peptide.

The next test concerns the target HIV-1 gp120 (Human immunodeficiency virus type 1 group M subtype B, UniProt P04578). The conditions noted are these: gp120 5 μg/ml, co-incubation.
Setting [2] is: first line of the peptide's pair.
Setting [3] is: second line of the peptide's pair.

As to “GDKVKMDSRIQV [peptide C, 12-residue peptide, aa 351-362 of mouse CD4 D4]”, the “% IL-2R+ CELLS” value with rIL-16 (setting [2]) was found to be 20%; in the test with rIL-16 (setting [3]) it was 35%. Moreover, the “inhibition of IL-16-stimulated induction of IL-2R” value (from here on “inhibition … of IL-2R”) in the test with rIL-16 (peptide 10^-7 M) is on record as “inhibitory”. Further, the “inhibition of rIL-16-induced splenocyte migration” value in the test with murine rIL-16 is listed as “inhibit”. The “IL-16-inhibitory activity (block of murine rIL-16-stimulated murine splenocyte migration)” value in the test with murine rIL-16 was “IL-16-inhibitory activity”. Further, the “IL-16 binding to GST-D3D4 in the presence of peptide” value (from here on “IL-16 binding to GST-D3D4”) in test [1] is reported as “failed to reduce IL-16 binding”.

Consider “TGLWQCLLSEGD (OTHER INFORMATION: Description of Artificial Sequence:IL-16 antagonist peptide) [peptide B, 12-residue peptide, aa 341-352 of mouse CD4 D4]”, for which the figures for the “% IL-2R+ CELLS” value in the test with rIL-16 (setting [2]) and in the test with rIL-16 (setting [3]) were 22% and 26%, respectively. In addition, the “inhibition … of IL-2R” value with rIL-16 (peptide 10^-6 M) and in the test with rIL-16 (peptide 10^-7 M) was “completely inhibited” each time. For the same substance, in the test with murine rIL-16, the “IL-16-inhibitory activity (block of murine rIL-16-stimulated murine splenocyte migration)” value is “IL-16-inhibitory activity”. In test [1], the “IL-16 binding to GST-D3D4” value is “reduced to background”.

Take “CLLS (OTHER INFORMATION: Description of Artificial Sequence:IL-16 antagonist peptide)”: in the test with anti-CD4 antibody (OKT4), the “effect on anti-CD4 antibody OKT4-induced migration” value is recorded as “unaffected”. In the test with IL-16, the “IL-16-induced migration of human T-cells blocked” value is listed as “approximately 90%”. The “effect on HIV-1 gp120-induced migration” value with HIV-1 gp120 is reported as “unaffected”.

“VSEEQKVVQVVA (OTHER INFORMATION: Description of Artificial Sequence:IL-16 antagonist peptide) [peptide A, 12-residue peptide, aa 327-338 of mouse CD4 D4]”: the “% IL-2R+ CELLS” value with rIL-16 (setting [2]) came out at 21%. In the test with rIL-16 (setting [3]), the “% IL-2R+ CELLS” value is listed as 37%. For the same substance, the “inhibition … of IL-2R” value with rIL-16 (peptide 10^-7 M) is “inhibitory”. In the test with murine rIL-16, the “inhibition of rIL-16-induced splenocyte migration” value was “inhibited” and the “IL-16-inhibitory activity (block of murine rIL-16-stimulated murine splenocyte migration)” value is given as “IL-16-inhibitory activity”. Also, the “IL-16 binding to GST-D3D4” value in test [1] is listed as “reduced to background”.

The values above are taken from patent publication US6723697B2, “IL-16 antagonists” (Research Corporation Technologies, Inc., priority 1999, dated 2004).
